Measurements as given in patent US20240082414A1 (Eli Lilly, published 2024).
Numbering of substitutions follows the chain as printed. Read-outs that look alike come from different tables or passages of the source.

B1: anti-human TNFα antibody Ab3 (antibody, human IgG1, kappa, V domains shown)
VH: QVQLVQSGAEVKKPGASVKVSCKASGYTFTGYYMHWVRQAPGQGLEWMGWINPYTGGTKYAQKFQGRVTMTRDTSISTAYMELSRLRSDDTAVYYCARDLYGSSNYGMDVWGQGTTVTVSS
VL: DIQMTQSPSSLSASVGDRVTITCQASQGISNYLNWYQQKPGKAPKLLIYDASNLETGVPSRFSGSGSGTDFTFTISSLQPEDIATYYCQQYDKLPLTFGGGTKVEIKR
notes: Human IgG1; expressed in CHO cells
B2: anti-human TNFα antibody Ab1 (antibody, human IgG1, kappa, V domains shown)
VH: B1 VH with M34I, K59N, M108G
VL: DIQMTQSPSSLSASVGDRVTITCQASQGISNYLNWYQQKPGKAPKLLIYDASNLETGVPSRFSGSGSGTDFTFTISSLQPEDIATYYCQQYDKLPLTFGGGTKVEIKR
notes: Human IgG1 with engineered cysteines at heavy chain positions 124 and 378 (EU numbering); expressed in CHO cells; also called anti-human TNFα Ab1; unconjugated anti-human TNFα Ab1
B3: anti-human TNFα antibody Ab5 (antibody, human IgG1, kappa, V domains shown)
VH: B1 VH
VL: DIQMTQSPSSLSASVGDRVTITCQASQGIRNYLNWYQQKPGKAPKLLIYDASNLETGVPSRFSGSGSGTDFTFTISSLQPEDIATYYCQQYDKLPLTFGGGTKVEIKR
notes: as for B1
B4: anti-human TNFα antibody Ab2 (antibody, human IgG1, kappa, V domains shown)
VH: B1 VH with M34I, K59N
VL: not shown
notes: as for B1
B5: anti-human TNFα antibody Ab6 (antibody, human IgG1, kappa, V domains shown)
VH: B1 VH with M34I, K59N, L100I, M108G
VL: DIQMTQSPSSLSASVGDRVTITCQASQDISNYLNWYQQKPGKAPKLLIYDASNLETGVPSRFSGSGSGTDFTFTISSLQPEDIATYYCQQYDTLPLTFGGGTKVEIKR
notes: Human IgG1
B6: anti-human TNFα antibody Ab4 (antibody, human IgG1, kappa, V domains shown)
VH: B1 VH
VL: not shown
notes: as for B1

How the values were obtained:
[1] = target: TNFα expressed on human monocyte-derived dendritic cells (human, UniProt P01375 1-233); assay: cell-based or functional assay
[2] = target: membrane human TNFα (non-cleavable TNFα construct stably transfected into CHO cells) (human, UniProt P01375 1-233); assay: cell-based or functional assay
[3] = target: T1, human TNFα (recombinant, soluble) (human, UniProt P01375 77-233); assay: cell-based or functional assay
[4] = target: T1, human TNFα (recombinant, soluble); assay: antigen-down ELISA, plate coated with human TNFα
Method: (§1) Example 2a. […] Briefly, 384-well high binding plates (Greiner Bio-one #781061) were coated with 20 μL per well of 1 μg/mL of human TNFα (Syngene), 2 μg/mL of rhesus macaque TNFα (R&D Systems, Cat# 1070-RM), or 2 μg/mL of canine TNFα (R&D Systems, Cat# 1507-CT/CF) diluted in carbonate buffer pH 9.3 (0.015 M Na₂CO₃ and 0.035 M NaHCO₃) and stored at 4° C. overnight. […] The plates were incubated at 37° C. for 90 min, then washed three times in PBS/0.1% Tween. 20 μL of secondary antibody reagent goat-anti-human-kappa-AP (Southern Biotech, Cat# 2060-04) with 1:1500 dilution was added to the plate and incubated for 45 minutes at 37° C. Plates were washed 3 times as above, and 20 μL of alkaline phosphatase substrate solution diluted to 1:35 in molecular grade water was added to every well. Once the color developed (approximately 15-30 min), plates were read at 560 nm OD on a Molecular Device Spectramax plate reader and data was acquired using Softmax Pro 4.7 software. Data analysis was performed in GraphPad Prism.

[5] = target: T2, canine TNFα (canine, UniProt P51742 77-233); assay: antigen-down ELISA, plate coated with canine TNFα
T2 construct: Bought protein; also called Canine TNFα (R&D Systems, Cat# 1507-CT/CF)
Method: as §1

[6] = target: T3, rhesus macaque TNFα (rhesus macaque, UniProt P48094 77-233); assay: antigen-down ELISA, plate coated with rhesus macaque TNFα
T3 construct: Bought protein; also called rhesus macaque monkey TNFα (R&D Systems, Cat# 1070-RM)
Method: as §1

[7] = target: T1, human TNFα (recombinant, soluble); assay: cell-based or functional assay; remark: listed apart in the source
[8] = target: T1, human TNFα (recombinant, soluble); assay: antigen-down ELISA, plate coated with human TNFα; remark: listed apart in the source
Method: as §1

T3 sequence (P48094 77-233 limits assumed): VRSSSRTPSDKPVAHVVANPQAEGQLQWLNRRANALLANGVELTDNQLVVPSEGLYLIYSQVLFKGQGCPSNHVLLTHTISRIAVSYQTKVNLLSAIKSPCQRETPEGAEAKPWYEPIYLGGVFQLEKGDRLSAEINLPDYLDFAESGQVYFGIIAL
T2 sequence (P51742 77-233 limits assumed): as the sequence (P48094 77-233 limits assumed) above, with R2K, Q21E, N30S, V49I, E53D, N72T, I83F, A109T, D140N counted along it
T1 sequence (P01375 77-233 limits assumed): as the sequence (P48094 77-233 limits assumed) above, with T44R, N72T, L138R counted along it
TNFα expressed on human monocyte-derived dendritic cells, sequence (P01375 whole entry): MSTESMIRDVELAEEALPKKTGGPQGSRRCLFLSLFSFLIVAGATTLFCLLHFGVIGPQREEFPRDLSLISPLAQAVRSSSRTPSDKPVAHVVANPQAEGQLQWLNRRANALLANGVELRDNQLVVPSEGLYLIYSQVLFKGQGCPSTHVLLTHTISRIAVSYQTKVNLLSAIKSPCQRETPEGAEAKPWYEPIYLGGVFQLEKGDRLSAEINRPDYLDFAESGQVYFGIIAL

Row | Binder | Immature Dendritic Cell Internalization Index [1] | Mature Dendritic Cell Internalization Index [1] | Inhibition of membrane human TNFα-induced apoptosis IC50 (L929 cells) [2] | Inhibition of soluble human TNFα induced apoptosis IC50 (L929 cells) [3] | EC50 [4] | EC50 [5] | EC50 [6] | Inhibition of soluble human TNFα induced apoptosis IC50 (L929 cells) [7] | EC50 [8]
1 | B1 | 20 | 35.2 | 0.15 µg/mL | 0.19 µg/mL | 0.216 µg/mL | 0.24 µg/mL | 0.141 µg/mL | – | –
2 | B2 | 19.4 | 26.7 | – | 0.16 µg/mL | 0.223 µg/mL | 0.22 µg/mL | 0.156 µg/mL | 0.089 µg/mL | 0.28 µg/mL
3 | B3 | 54.6 | 52.7 | 0.2 µg/mL | 0.22 µg/mL | 0.22 µg/mL | 0.176 µg/mL | 0.161 µg/mL | – | –
4 | B4 | 21.9 | 38.3 | 0.13 µg/mL | 0.13 µg/mL | 0.222 µg/mL | 0.24 µg/mL | 0.162 µg/mL | – | –
5 | B5 | – | – | – | – | 0.131 µg/mL | 0.162 µg/mL | 0.115 µg/mL | – | –
6 | B6 | 33.6 | 43.1 | 0.13 µg/mL | 0.19 µg/mL | 0.213 µg/mL | 0.231 µg/mL | 0.144 µg/mL | – | –
